# Measured values as given in the RNAGym collection of RNA variant scans (doi:10.7554/elife.80360).
# B1: Hammerhead Ribozyme (parent)
# chain: ACCGGAUGUGCUUUCCGGUCUGAUGAGUCCGUGAGGACGAAACAG
# Variants of: B1
# Experiment: self-cleavage, relative activity (ratio to wild type); higher = more cleavage; co-transcriptional
row,Variant,self-cleavage
1,U19C A40U,0.272
2,G22C U24G,0.281
3,U7C C43A,0.309
4,U7C C43U,0.25
5,G18C A26G,0.319
6,C2U G8U,0.948
7,A1G U21A,0.968
8,A26G C38A,0.325
9,U13G G33A,0.959
10,U12C U13A,1.36
11,G8U U13C,1.34
12,G22U A34U,0.327
13,C20A U21C,0.394
14,G27C A40C,0.411
15,C2G G4U,0.219
16,G25A G33A,0.379
17,G10A G36A,0.742
18,C16G U24G,0.611
19,G36A,0.733
20,A1U C3U,0.433
21,C16U A37G,1.02

row,Variant,self-cleavage
1,A6U G25C,0.259
2,U7C G36U,0.422
3,U24A A44G,1.68
4,U14C C15G,0.794
5,U9A C29A,0.49
6,G4U G18C,0.275
7,U13A C15U,0.907
8,G17A G45A,0.413
9,G10U C29U,0.94
10,C16G G17U,0.681
11,G8U G45A,0.744
12,U7C A26U,0.48
13,U32G A37G,0.448
14,U12A C16U,1.1
15,G22A U32G,0.264
16,G18A G27C,0.43
17,A1G C16G,0.778
18,A6G G27U,0.356
19,C3U C38G,0.745
20,U12A U13G,0.762
21,U13A G25U,0.277

row,Variant,self-cleavage
1,G17A G25A,0.353
2,G22C A34U,0.318
3,G31C A42C,0.328
4,U7A A34C,1.78
5,C2U G39U,0.359
6,G31A C43G,0.345
7,G10A A41G,0.359
8,G5A G39C,0.328
9,A41G A42U,0.335
10,U28G U32C,0.664
11,C15G G17U,0.321
12,C38A,0.833
13,U12A,1.05
14,C11U G39C,0.389
15,A6U C30A,0.649
16,U12C A37G,0.915
17,C30A A37U,0.42
18,G10C G45U,0.812
19,G8C A37U,0.842
20,G5U A23U,0.356
21,G17C G36U,0.392

row,Variant,self-cleavage
1,C3U U9G,0.657
2,G8U U28G,0.789
3,U21A G33U,0.55
4,C11U A26C,0.433
5,U12C G39A,0.403
6,G5C A23G,0.324
7,U21G G22C,0.292
8,C16U U21C,0.473
9,C16U U21G,0.588
10,C30A G45U,0.545
11,C2G U21A,0.314
12,A34C G45U,0.515
13,C15U G22C,0.288
14,G27A G35A,0.505
15,G8A A34C,0.936
16,U24C G31C,1.02
17,C16U C20U,0.651
18,U14A C20A,0.44
19,U9C C29U,0.831
20,G22A A44U,0.314
